US20240398863A1 (ARCE THERAPEUTICS, published 2024)

What was measured:
[1] = biological target: Human C-type lectin-like molecule-1 (CLL-1) on cells (human) (UniProt Q5QGZ9); experiment: flow cytometry histogram on THP-1 AML cells
[2] = biological target: Human C-type lectin-like molecule-1 (CLL-1) on cells (human) (UniProt Q5QGZ9); experiment: flow cytometry histogram on Molm14 AML cells; the bold label in the same panel prints 67.1%
[3] = biological target: Human C-type lectin-like molecule-1 (CLL-1) on cells (human) (UniProt Q5QGZ9); experiment: flow cytometry dot plot on Molm14 WT cells, CLL-1_APC_A against CD123_BV421_A (D-Q1: 0.14%, D-Q3: 0.28%, D-Q4: 18.03%); in the Molm14 CLL-1KO pool the same quadrant holds D-Q2: 10.47% and D-Q4: 89.48%
[4] = biological target: Human C-type lectin-like molecule-1 (CLL-1) on cells (human) (UniProt Q5QGZ9); experiment: flow cytometry histogram on U937 AML cells
[5] = biological target: Human C-type lectin-like molecule-1 (CLL-1) on cells (human) (UniProt Q5QGZ9); experiment: flow cytometry histogram on HL60 AML cells
[6] = biological target: Human C-type lectin-like molecule-1 (CLL-1) on cells (human) (UniProt Q5QGZ9); experiment: flow cytometry histogram on Molm13 AML cells
[7] = biological target: T1, Human C-type lectin-like molecule-1 (CLL-1) on cells (human, UniProt Q5QGZ9 1-265); experiment: flow cytometry, overlaid histograms on K562-CLL-1 OFP cells; panel title 'Anti-CLL-1 scFv-Fc Abs_2 nM' (legend paragraph 56 says 0.2 nM); control: 2nd antibody only [B]
T1 construct: whole, on cells; also called CLL-1 antigens; MICL
T1 sequence (looked up): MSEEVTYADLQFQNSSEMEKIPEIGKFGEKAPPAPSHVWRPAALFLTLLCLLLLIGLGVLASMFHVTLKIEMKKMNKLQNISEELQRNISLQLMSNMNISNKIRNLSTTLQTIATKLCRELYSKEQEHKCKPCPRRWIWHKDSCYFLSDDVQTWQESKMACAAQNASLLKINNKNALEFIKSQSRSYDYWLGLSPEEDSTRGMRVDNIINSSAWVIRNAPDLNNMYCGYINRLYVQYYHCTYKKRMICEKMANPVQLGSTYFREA
Protocol: FIG. 1 illustrates screening of the anti-CLL-1 antibodies disclosed herein by flow cytometry: (A) Representative flow cytometry dot plots. (B) Overlapping histograms. Each scFv-Fc antibody was stained at 0.2 nM with paired K562-CLL-1 and K562 cells, followed by staining with fluorochrome-conjugated 2nd antibody for flow cytometry analysis;
As illustrated in FIGS. 1A-B and 2, purified scFv-Fc antibodies were further assessed by flow cytometry for their binding to CLL-1 antigens of the K562-Luc-CLL-1 transfectant as well as the CLL-1+ AML cell line, U937, MOLM-14 and THP-1. K562 cells, a human erythroleukemic cell line, and Raji-Luc cells, a human B lymphoblastoid cell line, were used as the CLL-1-negative control cell lines. Each scFv-Fc antibody was screened with six cell lines, including K562, K562-CLL-1, U937, MOLM-14, THP-1 and Raji. Although the binding profiles of each clone varied with cell lines tested, the Top 3 clones with stronger binding pattern were selected, and the ranges of binding percentage were 52%˜99% for K562-Luc-CLL-1, 25%˜98% for U937, 6%˜37% for MLOM-14 and 1%-36% for THP-1.

CLL-1-ECD [8] = biological target: T2, CLL-1-ECD (human, UniProt Q5QGZ9 65-265); experiment: AlphaLISA; column head 'Affinity: Kd (M) by AlphaLISA'
T2 construct: extracellular domain; also called CLL-1-ECD antigen
T2 sequence (looked up): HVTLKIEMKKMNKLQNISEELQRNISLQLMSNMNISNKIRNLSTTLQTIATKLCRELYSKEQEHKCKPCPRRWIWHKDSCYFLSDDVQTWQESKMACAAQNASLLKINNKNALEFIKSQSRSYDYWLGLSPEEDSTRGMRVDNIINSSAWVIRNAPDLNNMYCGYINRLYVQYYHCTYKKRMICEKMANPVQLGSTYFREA
Protocol: (§1) In order to characterize the antigen binding capacities of anti-CLL-1 scFv-Fc antibodies, an AlphaLISA sandwich assay was set up with Anti-6×His Acceptor beads, Protein A Donor beads, and CLL-1-ECD. By AlphaLISA assay, the Kd values of each anti-CLL-1 scFv-Fc antibody were determined.

CLL-1-ECD [9] = biological target: T2, CLL-1-ECD; experiment: AlphaLISA sandwich assay with Anti-6xHis Acceptor beads, Protein A Donor beads and CLL-1-ECD
Protocol: as §1

CLL-1-ECD [10] = biological target: T2, CLL-1-ECD; experiment: AlphaLISA; column head 'Affinity: Kd (M) by AlphaLISA'; clone printed as 56D01, FIG. 3A on the same sheet prints 65D01
Protocol: as §1

A % positive cells (gate D) [1] of 71%, a % positive cells (gate D) [2] of 67.6% and a % cells in quadrant D-Q2 (CLL-1 APC+ CD123 BV421+) [3] of 81.5% were found for “anti-human CLL-1-APC antibody (clone REA431)” in this work. For the same molecule, the % positive cells (gate D) [4] was 99.3%, the % positive cells (gate D) [5] was 74.4% and the % positive cells (gate D) [6] was 21.6%.

B1: 59A09 (Fc fusion)
VH: EVQLVESGGGLVQPGGSLRLSCAASGFTFTDYYIHWVRQAPGKGLEWVSMISPSGGGEAYYADSVKGRFTISRDNSKNTLYLQMNSLRAEDTAVYYCARAHDFDDFDYWGQGTLVTVSS
VL: DIQMTQSPSSLSASVGDRVTITCRASQSIRYSLAWYQQKPGKASKLLIYDASTLQSGVPSRFSGSGSGTDFTLTISSLQPEDFATYYCQQYNNSPLTFGQGTKVEIK
notes: anti-CLL-1 scFv-Fc clone; also called anti-CLL-1-59A09; K562-CLL-1 OFP 59A09
B1: binds [7].

B2: 61A07 (Fc fusion)
VH: EVQLVESGGGLVQPGGSLRLSCAASGFTFSNHWMHWVRQAPGKGLEWVSSISGAGGGKSYADSVKGRFTISRDNSKNTLYLQMNSLRAEDTAVYYCARDESSYAYDGDYWGQGTLVTVSS
VL: DIQMTQSPSSLSASVGDRVTITCRANQSIRNYLNWYQQKPGKAPKLLIYAASTLQSGVPSRFSGSGSGTDFTLTISSLQPEDFATYYCQQNTSSPSTFGQGTKVEIK
notes: anti-CLL-1 scFv-Fc clone; also called anti-CLL-1-61A07; K562-CLL-1 OFP 61A07
B2: binds [7].

B3: anti-CLL-1 scFv-Fc antibody 61H08 (Fc fusion)
VH: EVQLVESGGGLVQPGGSLRLSCAASGFTFDDYGMHWVRQAPGKGLEWVSGIWPSGGNKEYADSVKGRFTISRDNSKNTLYLQMNSLRAEDTAVYYCARLLALTYDYFDYWGQGTLVTVSS
VL: DIQMTQSPSSLSASVGDRVTITCRASQGISSYLAWYQQKPGKAPKLLIYDASTLQSGVPSRFSGSGSGTDFTLTISSLQPEDFATYYCQQSYSTPFTFGQGTKVEIKR
notes: also called anti-CLL-1-61H08
A Kd (CLL-1-ECD [8]) of 4.9 nM was found for B3 in this work.

B4: anti-CLL-1 scFv-Fc antibody 72C10 (Fc fusion)
VH: EVQLVESGGGLVQPGGSLRLSCAASGFTFSVNAMHWVRQAPGKGLEWVSTISGSDGHKYYADSVKSRFTISRDNSKNTLYLQMNSLRAEDTAVYYCARDVDSEIGDGYHEDIWGQGTLVTVSS
VL: DIQMTQSPSSLSASVGDRVTITCRASQSVTNALNWYQQKPGKAPKLLIYAASNLQSGVPSRFSGSGSGTDFTLTISSLQPEDFATYYCQQTNNSPATFGQGTKVEIKR
notes: also called anti-CLL-1-72C10
For B4, the “EC50 (read off the curve)” value (CLL-1-ECD [9]) was about 1 nM and the Kd (CLL-1-ECD [8]) was 1.1 nM.

B5: anti-CLL-1 scFv-Fc antibody 65D01 (Fc fusion)
VH: QVQLQQWGAGLLKPSETLSLTCAVYGGSFSGYYWSWIRQPPGKGLEWIGEINHSGSTNYNPSLKSRVTISVDTSKNQFSLKLSSVTAADTAAYYCARSPLQWLDDAFDIWGQGTMVTVSS
VL: QSVLTQPPSVSAAPGQRVTISCSGSSSNIGSNYVSWYQQLPGTAPKLLIYDNNERPSGIPDRFSGSKSATSATLDITGLQTGDEADYFCGTWDNSPSTDWVFGGGTKVTVLG
notes: also called anti-CLL-1-65D01
A Kd (CLL-1-ECD [10]) of 2.8 nM was found for B5 in this work.
